# According to the nanobody polyreactivity screen of Harvey et al. (2022):
# Experiment: yeast display, Sf9 membrane polyspecificity reagent, FACS + sequencing; frameworks hold sequencing errors
# Summary of the method: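 Galactose-induced (36–48 hours) yeast carrying a synthetic nanobody display library were exposed to 10% biotinylated, detergent-solubilized Sf9 membrane reagent at 4 °C for 1 hour. FACS followed streptavidin microbead enrichment, using low and high (top ~1%) gates for expression (anti-HA) and reagent binding (streptavidin). Colony PCR, MiSeq 2 × 250 sequencing and CDR-length filtering followed. Labels for polyreactivity reflect the gate of origin.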
row,Sequence,polyreactivity (PSR sort gate)
1,QVQLVESGGGLVQAGGSLRLSCAASGSTFLYYTMGWYRQAPGKERELVAAITSGGDTNYADSVKGRFTISRDNAKNTVYLQINSLKPEDTAVYYCNAEYTWSGTKIYTYKYDYWGQGTQVTVSS,low polyreactivity
2,QVQLVESGGGLVQAGGSLRLSCAASGRIFSYKAMGWYRQAPGKERELVAAISFSTTSTYYADSVKGRFTISRDNAKNTVYLQMYSLKPEDTAVYYCNTPGLPIDSEYDYWGQGTQVTVSS,low polyreactivity
3,QVQHVESGGGLVQAGGSLRLSCAASGSIFWVYVMGRYIQAPGQERELVAAITNGGSTDYADSVKGRFTISRDNAKNTVYLQMNSLKPEDTAFYYCAKRSTIWGRILITFDYWGQGTQVTVSS,low polyreactivity
4,QVQLVESGGGLVQAGGSLRLSCAASGSTFNTNAMGWYRQAPGKERELVAAITWRTGSTYYADSVKGRFTISRDNAKNTVYLQMNSLKPEDTAVYYCAADYFWYRSGRYHYWGQVTQVTVSS,high polyreactivity
5,QVQLVESGGGLVQAGGSLRLSCAASYNAMGWYRQAPGKEREFVAGITQSGGSTYYADSVKGRFTISRDNAKNTVYLQMNSLKAEDTAVYYCAKRLYKWGQGTQVTVSS,low polyreactivity
6,QVQLVESGGGLVQAGGSLRLSCAASGSTFGGNAMGWYRQAPGKERELVASISDGGRTNYADSVKGRFTISRDNAKNTVYLQMNSLKPEDTAVYYCAADYAPVAFDYWGQGTQVTVSS,low polyreactivity
7,QVQLVESGGGLVQAGGSLRLSCAASGRIFHSYVMGWYRQAPGKERELVARISSGGRTNYADSVKGRFTISRDNAKNSVYLQMNSLKPEDTAVYYCAATRLYPRSRYDYWGQGTQVTVSS,high polyreactivity
8,QVQLVESGGGLVQGGGSLRLSCAASGRIFGVNAMGWYRQAPGKERELVATITSGTSTYYADSVKGRFTIARDNATTTVYLQITSLKPEDTAVYYSATSRVIPWDYDSWGQGTQVTVSS,low polyreactivity
9,QVQLVESGGGLVQAGGSLRLSCAASGRTLWRYAMGWYRQAPGKERELVASIRSGGSTYYADSVKGRFTISRDNAKNTVYLQMNSLKPEDTAVYYCAARYYWGAEAGYYYWGQGTQVTVSS,high polyreactivity
10,QVQLVESGGGLVQAGGSLRLSCADSGSIFLRYAMGWYRQAPGKERELVAAISCRGGSTYYADSVKGRFTISRDNAKNTVYLQMNSQKPEDTAVYYCAAYRGRSLEYDYWGQGTQVNVSS,high polyreactivity
11,QVQLVESGGGLVQAGGSLRLSCAASGLTFQGYAMGWYRQAPGKERELVAAISSSGDITYYADSVKGRFTISRDNAKNTVYLQMNSLKPEDTAVYYCAAEAEYYVYGTYDYWGQGTQVTVSS,high polyreactivity
12,QVQLVESGAGLVQAGGSLRLSCAASGSTFSRYAMGWYRQAPGKERELVAAISRRGGSTYYSDSVKGRFTISRDNSKNTVYLQKISLKPEDTAVYYCAADPQPSSDRGTYDYWGQGTQVSVSS,high polyreactivity
13,QVQLVESGGGLVQAGGSLRLSCAASGRTFDPYAMGWYRQAPGKERELVAAITSGDDTYYADSVKGRFTISRDTAKNTVYLQMNSLKPEETAVYFCAAASFTPDYYSHDYWGQGTQVTVSS,low polyreactivity
14,QVQLVESGGGLVQAGGSLRLSCAASGRTFWYYGMGWYRQAPGKERELVAAIRGSGGSTYYADSVKGRFTISRDNAKNTVYLQMNSLKPEDTAVYYCAKRSYIRPKYTYEYWGQGTQVTVSS,high polyreactivity
15,QVQLVESGGGLVQAGGSLRLSCAASGFIFRYYAMGWYRQAPGKERELVAAISGSGGGTYYADSVKGRFTISRDNAKNTVYLQMNSLKPEDTAVYYCAAGSTSGYFRYYYWGQGTQVTVSS,high polyreactivity
16,QVQLVESGGGLVQAGGSLRLSCAASGSIFARNAMGWYRQAPGTERELVASITWSGASTYYADSVKGRFTMSRDNATNTVSLQLNSLKPDDTAVYYCAATAQKLSLDYSSYEYWGQGTQVTVSS,low polyreactivity
17,QVQLVEAGVGLVQAVGSLRLSCAASGYIFVVNAMGWYRQAPGKERELVASITWSGDNTYYADSVKGRFTISRDNAKNTVYLQMNSLKPEDTAVYYCAATIWIAYRGWYSDYNYWGQGTQVTVSS,low polyreactivity
18,QVQLVESGGGLVQAAGSLRLSSAPSGRIFYKNARGWYRQAPGKETELVAAISWRGTSTYYADSVKGRFTISRDNAKNTVYLQMNILKPEDTAVYYCNTLYYSQREIYYWGYDSWGKGTQVTVSS,high polyreactivity
19,QVQLVESGGGLVQAGGSLRLSCAASGSTFGVYTMGWYRQAPGKERELVAAITKSGGSTYYADSVKGRFTISRDNAKNTVYLQMNSLKPEDTAVYYCNTDYGRYLYYRYGYWGQGTQVTVSS,low polyreactivity
20,QVHIVESGGGLVQAGGSLRLSCGASGFTFIYAMGWYRQAHAKEREMVAAITRSGGSTYYADSVKGRFTISRDNAKNTVYSQMNILKPEDTAFYYCAARLRYQGRGYRYWGQGTQVTVSS,high polyreactivity
21,QVQLVESGGGLVQAGGSLRLSCAASGITFWYYTMGWYRQAPGKERELVARITSGSRTSYADSVKGRFTISRDNAKNTVYLQMNSLKPEDTAVYYCAAGSYADRLWSKYNYWGQGTQVTVSS,high polyreactivity

row,Sequence,polyreactivity (PSR sort gate)
1,QVQLVESGGGLVQAGGSLRLSCAASGSIFPYYAMGWYRQAPGKERELVATISSGGSTFYADSVKGRFTISRDNAKKTVYLQMNSLKPEDTAVYYCAADIWYFDYDYWGQGTQVTVSS,high polyreactivity
2,QVQLVESGGGLVQAGGSLRLSCAASGIIFGSNTMGWYRQAPGTERELVAAITSSDGSTHYADSVKGRFTISRDNAKNTVYLQMNRLKPEDTAVYYCAARKVTYGHSYGYDYWGQGTQVTVSS,low polyreactivity
3,QVQLVDSGVGLVQAGGSLRLSCAASGRIFDYYAMGWYRQAPGKERELVAAITSGGTTTYYADSVKGRFTISRDNAKNTVYLQMNSLKPEDTAVYYCAASFFGDGYIDLWYKFDYWGQGTQVTVSS,low polyreactivity
4,QVQLVQSAVGLVQAGGSLRLICAASGITFLDNAMGWYRQAPGTERELVAAITSDGNPYYADCVKGRFTISRDNAKNTVYLQMNSLKPEDTAVYYCAVEVSDYYTYVSYDYCGQGTQVTVSS,low polyreactivity
5,QDQHVESGGGLVQAGGSLRLSCAASGRTFSYYTMGWYRQAPGKERELVAAISRRGGNTYYADSVKGRFTISRDNAKNTVYLQMNSLKPADTAVYYCAALSYAKHYDPSGYDYWGQGTQVTVSS,high polyreactivity
6,QVQLVESGGGLVQAGGSLRLSCAASGRIIYYNAMGWYRQAPGKERDLVARISSGGSTNYADSVKGRFTFSRDNAKNTVYLQMISLKPEDTAGDYCAVAKGGLAWGVGRAGRYDYWGQGTQVTLSS,low polyreactivity
7,QVQLVESAGGLVQAGGSLPLSCAASGFTFISNAMGWYRQSPAKERELVAAISSSGGRTYYAVSVKGRFTISRDNAKNTVYLQMNSVKPEDTAVYYSNADRSLLYSRKIEYDYWGQGTKVTVSS,low polyreactivity
8,QVQLVESGGGLVQAGGSLRLSCAASGSISWYYAMGWYRQAPGKEWEGVAAISDSGGDTYYADSVKGRFTISRDNAKNTVYLQMNSLKPEDTAVYYCAAQYRGSYRTTYDYWGQGTQVTVSS,low polyreactivity
9,QVQLEESGGGLVQAGGSLRLSCAASGSTYGNSAMAGYRQAPGKERELVAAINGGPNTYYADSVKGRFTISRDNAKKTVYLQMNSLKPEDTAVYYCAAEAQAIGFHWGVDGDSWGQGTQVTVSS,low polyreactivity
10,QVQLVESGGGLVQAGGSLRLSCAASGSIFRYYAMGWYRQAPGKERELVAAITASGGRTHYADSVKGRFTISRDNAKNTVYLQMNSLKLEDTAVYYCSADLYYAWYWKQHYDYWGQGTQVTVSS,high polyreactivity
11,QVQLVESGGGLVQAGGSLRLSCAASGRIFQWYAMGWYRQAPGKERELVATISDGDSTNYADSVKGRFTISRDNAKNTVYFQMNSLKPEDTAVYYCAALDIYYDSYYWYDYWGQGTQVTVSS,high polyreactivity
12,QVQLVASGGGLVQAGGSLRLSCAASGLIIRYYAMGWYRQAPGKEREFVAAITWNGGSTYADSVKGRFTISRDNAKNTVNLQMNSLIPEDTAVYYCAADLSYWDDFDYSGQGTQVTVSS,low polyreactivity
13,QVQLVESGGGLVQAGGSLRLSCAASGRIFQTYAMGWYRQAPGNERELVARIRLSGGSTYYADSVKGRFTISRDNAKNTVYLQMNRLKPEATAVYYCAALYSRARFTDPYYYWGQGTQVTVSS,high polyreactivity
14,QVQLVESGGGLVQAGGSLRLSCAASGRIFVYYAMGWYRPAPGKERELVAAITSGGSTYYADSVKGRFTISRDNANNTVYLQMNSLKPEDTAVYYSAAYRYYYLVYQQHREYGYWGQGSQVTVSS,high polyreactivity
15,QVQLVESGGGLVQAGGSLRLSCAASGFIFVPYAMGWYRQAPGKERELVATITWRGDSTYYADSVKGRFTISRDNAKNTVYLQMNSLKPEDTAVYYCAAVGPIRGYSSDEYWGQGTQVTVSS,low polyreactivity
16,QVQLVESGGGLVQAGGSLRLSCAASGSILRLYVMGWYRQAPGKERELVADISDRGGSTYYADSVKGRFTISRDNAKNTVYLQLNSLKPEDTAVYYCDKDSETAGATYTEYDYWGQGTQVTVSS,low polyreactivity
17,QVQLVESGGGLVQAGGSLRLSCAASGSTFFTNAMGWYRQAPGKERELVATITWSGGSTYADSVKGRFTISRDNAKNTVYLQMNSLKPEDTAVYYCAAESSSYWGDLGGALWLYDYWGQGTQVTVSS,low polyreactivity
18,QVQLVESGGGLVQAGGSLRLSCAASGNIFLTYAMGWYRQAPGKERELVAAISRGGRTYYADSVKGRFTISRDNAKNTVYLQMNRLKPEDTAVYYCNVQPDRISRYDYWGQGTQVTVSS,high polyreactivity
19,QVQLVESGGGLFQAGRSLRIRCAASGRILNVYHMGWYRQAPGKERELVAAISSGANTNYAESVKGRFTISRDNAKNTVDLQMNSLKPEDTEVYFCNTEQFYDYDYTFDYWGQGTQVTVSS,low polyreactivity
20,QVQLVESGGGLVQAGRSLRLSCAASGSTIVGYAIGWYRQAPGKDRELVAAISGSGTSTYYADSVKGRFTISRDNAKNTVYLHMISMKPEHTAVYYCIADPIFVYSSYNFWGQGTQVTVSS,low polyreactivity
